Consider five molecules from PMC3286403.

Several values for one entry are separate records, joined by “and”; a condition that tells them apart may be missing. Identical values can stand only once. Like-named read-outs stand apart in the source and are kept apart here.

The target in assay [1] is untagged HIV-1 integrase wild type (HIV-1). The experiment in a line: SEC; 2.5 μM untagged IN on Superdex 200 10/300 GL; 50 mM HEPES pH 7.4, 750 mM NaCl, 10% glycerol; calibrated with protein standards; no DNA.
The target in assay [2] is untagged HIV-1 integrase W131A (HIV-1). The description is as above.
For assay [3], the target named is His-tagged HIV-1 integrase Y194A (HIV-1). Nature of the assay: AlphaScreen or HTRF; HTRF; His-IN 80 nM, GST-LEDGF/p75 or GST-TNPO3 5 nM, anti-GST-Europium Cryptate and anti-His-XL665; 25 mM Hepes pH 7.3, 150 mM NaCl, 2 mM MgCl2, 0.1% BSA, 1 mM DTT; read 2 h after incubation; signal as percent of IN WT ΔF. For orientation: Alpha assays give light when donor and acceptor beads are brought close together.

In assay [4] the target is His6-tagged HIV-1 integrase K188Q (HIV-1). The assay is described as above.
Assay [5] concerns the target His6-tagged HIV-1 integrase Q168L (HIV-1). Described as above.
Assay [6] addresses His6-tagged HIV-1 integrase W131A (HIV-1). The description is as above.
Assay [7] addresses His6-tagged HIV-1 integrase Y194E (HIV-1). Described as above.
The target of assay [8] is untagged HIV-1 integrase Y194E (HIV-1). The experiment in a line: SEC; 2.5 μM untagged IN on Superdex 200 10/300 GL; 50 mM HEPES pH 7.4, 750 mM NaCl, 10% glycerol; calibrated with protein standards; no DNA. In general terms: In gel filtration, larger molecules generally elute earlier.
Assay [9] concerns the target His6-tagged HIV-1 integrase Q168L (HIV-1). The experiment in a line: AlphaScreen or HTRF; HTRF; His-IN 80 nM, GST-LEDGF/p75 or GST-TNPO3 5 nM, anti-GST-Europium Cryptate and anti-His-XL665; 25 mM Hepes pH 7.3, 150 mM NaCl, 2 mM MgCl2, 0.1% BSA, 1 mM DTT; read 2 h after incubation; signal as percent of IN WT ΔF. This is another data set of the same source.
For assay [10], the target named is His6-tagged HIV-1 integrase W131A (HIV-1). The description is as above. This is another data set of the same source.
Assay [11] concerns the target His6-tagged HIV-1 integrase Y194E (HIV-1). Described as above. The source holds these as a separate data set.
For assay [12], the target named is His6-tagged HIV-1 integrase Y194F (HIV-1). Described as above.

As a reminder, the stoichiometry N is the number of molecules, sites or subunits per partner or assembly. For the molecule “untagged HIV-1 integrase wild type (enzyme)”, the stoichiometry N in assay [1] is 4 and 2.

untagged HIV-1 integrase W131A (enzyme): the stoichiometry N in assay [2] was 4 and 2.

Regarding “GST-LEDGF/p75 full length (from UniProt O75475 1-530) (natural protein)”, the percent decrease of binding against IN WT (HTRF) in assay [3] is 27%; in assay [4], 64.9%; in assay [7], 26%. Besides, the percent of IN WT interaction (HTRF) in [5] amounted to 16.3%; in assay [6], 9.3%.

The molecule untagged HIV-1 integrase Y194E (enzyme) yielded a stoichiometry N in assay [8] of 4.

B1: GST-TNPO3 full length (natural protein)
chain: MEGAKPTLQLVYQAVQALYHDPDPSGKERASFWLGELQRSVHAWEISDQLLQIRQDVESCYFAAQTMKMKIQTSFYELPTDSHASLRDSLLTHIQNLKDLSPVIVTQLALAIADLALQMPSWKGCVQTLVEKYSNDVTSLPFLLEILTVLPEEVHSRSLRIGANRRTEIIEDLAFYSSTVVSLLMTCVEKAGTDEKMLMKVFRCLGSWFNLGVLDSNFMANNKLLALLFEVLQQDKTSSNLHEAASDCVCSALYAIENVETNLPLAMQLFQGVLTLETAYHMAVAREDLDKVLNYCRIFTELCETFLEKIVCTPGQGLGDLRTLELLLICAGHPQYEVVEISFNFWYRLGEHLYKTNDEVIHGIFKAYIQRLLHALARHCQLEPDHEGVPEETDDFGEFRMRVSDLVKDLIFLIGSMECFAQLYSTLKEGNPPWEVTEAVLFIMAAIAKSVDPENNPTLVEVLEGVVRLPETVHTAVRYTSIELVGEMSEVVDRNPQFLDPVLGYLMKGLCEKPLASAAAKAIHNICSVCRDHMAQHFNGLLEIARSLDSFLLSPEAAVGLLKGTALVLARLPLDKITECLSELCSVQVMALKKLLSQEPSNGISSDPTVFLDRLAVIFRHTNPIVENGQTHPCQKVIQEIWPVLSETLNKHRADNRIVERCCRCLRFAVRCVGKGSAALLQPLVTQMVNVYHVHQHSCFLYLGSILVDEYGMEEGCRQGLLDMLQALCIPTFQLLEQQNGLQNHPDTVDDLFRLATRFIQRSPVTLLRSQVVIPILQWAIASTTLDHRDANCSVMRFLRDLIHTGVANDHEEDFELRKELIGQVMNQLGQQLVSQLLHTCCFCLPPYTLPDVAEVLWEIMQVDRPTFCRWLENSLKGLPKETTVGAVTVTHKQLTDFHKQVTSAEECKQVCWALRDFTRLFR
On to B1, for which the percent of IN WT (HTRF) in [9] came out at 45%; in assay [10], 49%. Further, the figures for the percent decrease of binding against IN WT (HTRF) in assay [11] and in assay [12] were 23.5% and 14.4%, respectively.
